Experimental data as given in US20060051363A1, “Protein inducing cell death of helicobacter pylori” (JAPAN SCIENCE AND TECHNOLOGY AGENCY, priority 2002, published 2006).

Key:
[1] = target: T1, subunit 2 of the apoptosis-inducing protein from Helicobacter pylori (amino acids 380-567 of the protein … (Helicobacter pylori strain 26695)); assay: native PAGE under acid condition (single band), then 2D SDS-PAGE (two bands, about 40 kDa and 22 kDa)
T1 construct: Purified from the membrane fraction of H. pylori strain 26695; this follows from the lengths; also called about 22 kDa band
T1 chain: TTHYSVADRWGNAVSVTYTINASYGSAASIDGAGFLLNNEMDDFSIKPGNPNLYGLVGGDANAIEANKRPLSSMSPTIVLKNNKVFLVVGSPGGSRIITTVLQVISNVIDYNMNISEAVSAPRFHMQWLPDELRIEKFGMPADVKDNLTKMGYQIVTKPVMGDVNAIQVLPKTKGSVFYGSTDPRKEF

[2] = test system: human gastric adenocarcinoma cell line AGS; assay: cytotoxic effect assayed using WST-1 kit in AGS cells; format: cell-based; conditions: FIG. 7
Method: In this example, the apoptosis-inducing activity was measured as the cytotoxic activity in human gastric adenocarcinoma cell line AGS (ATCC CRL 1739) using Quick Cell Proliferation Assay Kit (Cat.BV-K301-10) (BioVision). The cell viability (surviving cell), from which an apoptosis-inducing activity is calculated, is based on the activity of intracellular mitochondrial dehydrogenase activity as a marker enzyme and is measured by the absorbance at 450 nm after 1 hr incubation at 37° C. with the substrate of the enzyme. The absorbance indicates the cell viability. The more cytotoxic, the less the absorbance is according to the mesurement.
(§1) In this example, the apoptosis-inducing activity of the protein purified in example 1 was examined in human gastric adenocarcinoma cell line AGS (ATCC CRL 1739), in human gastric carcinoma cell line KATO III (Human Science Research Resources Bank, Cat No. JCRB0611 (ATCC, HTB-103)) and in human uterine cervix cancer-derived HeLa cell (Human Science Research Resources Bank, Cat No. JCRB9004).
(§2) The cytotoxic effect was assayed using WST-1 kit (Roche Diagnotics).

[3] = test system: human gastric carcinoma cell line KATO III; assay: cytotoxic effect assayed using WST-1 kit in KATO III cells; format: cell-based; conditions: FIG. 8
Method: as §1, §2

[4] = test system: human uterine cervix cancer-derived HeLa cell; assay: cytotoxic effect assayed using WST-1 kit in HeLa cells; format: cell-based; conditions: FIG. 7
Method: as §1, §2

AGS cells = assay: induction of apoptosis in AGS cells (Hoechst 33342 nuclear staining, fluorescence microscopy); format: cell-based, human; conditions: Hoechst 33342 staining, FIG. 9
Description: Also, the induction of apoptosis in AGS cells by the protein was examined: Trypsinized apoptotic and control cells were collected and stained with a fluorescent dye (Hoechst 33342), which stains cellular nuclei. Since the nuclei of apoptotic cells are highly condensed and fragmented, apoptotic cells are easily differentiated from control cells under fluorescence microscopy. Cells were put on a slide glass, the number of apoptotic cells and control cells were counted and the percentage of apoptotic cells in total cells was enumerated. At least total 500 cells were counted for each experiment.

B1: subunit 1 of the apoptosis-inducing protein from Helicobacter pylori (amino acids 27-379 of the protein encoded by the HP1118 gamma-glutamyl transferase gene) (enzyme)
chain: ASYPPIKNTKVGLALSSHPLASEIGQKVLEEGGNAIDAAVAIGFALAVVHPAAGNIGGGGFAVIHLANGENVALDFREKAPLKATKNMFLDKQGNVVPKLSEDGYLAAGVPGTVAGMEAMLKKYGTKKLSQLIDPAIKLAENGYAISQRQAETLKEARERFLKYSSSKKYFFKKGHLDYQEGDLFVQKDLAKTLNQIKTLGAKGFYQGQVAELIEKDMKKNGGIITKEDLASYNVKWRKPVVGSYRGYKIISMSPPSSGGTHLIQILNVMENADLSALGYGASKNIHIAAEAMRQAYADRSVYMGDADFVSVPVDKLINKAYAKKIFDTIQPDTVTPSSQIKPGMGQLHEGSN
notes: Purified from the membrane fraction of H. pylori strain 26695; this follows from the lengths; also called about 40 kDa band
binding result [1]: binds

B2: protein purified in example 1: Helicobacter pylori protein complex of two subunits (SEQ ID NO: 1 and 2; about 40 kDa and 22 kDa) encoded by the HP1118 gene (protein)
chain 1: ASYPPIKNTKVGLALSSHPLASEIGQKVLEEGGNAIDAAVAIGFALAVVHPAAGNIGGGGFAVIHLANGENVALDFREKAPLKATKNMFLDKQGNVVPKLSEDGYLAAGVPGTVAGMEAMLKKYGTKKLSQLIDPAIKLAENGYAISQRQAETLKEARERFLKYSSSKKYFFKKGHLDYQEGDLFVQKDLAKTLNQIKTLGAKGFYQGQVAELIEKDMKKNGGIITKEDLASYNVKWRKPVVGSYRGYKIISMSPPSSGGTHLIQILNVMENADLSALGYGASKNIHIAAEAMRQAYADRSVYMGDADFVSVPVDKLINKAYAKKIFDTIQPDTVTPSSQIKPGMGQLHEGSN
chain 2: TTHYSVADRWGNAVSVTYTINASYGSAASIDGAGFLLNNEMDDFSIKPGNPNLYGLVGGDANAIEANKRPLSSMSPTIVLKNNKVFLVVGSPGGSRIITTVLQVISNVIDYNMNISEAVSAPRFHMQWLPDELRIEKFGMPADVKDNLTKMGYQIVTKPVMGDVNAIQVLPKTKGSVFYGSTDPRKEF
modifications: Helicobacter Pylori
notes: about 40 kDa and 22 kDa) encoded by the HP1118 gene
cytotoxic activity [2]: has the cytotoxic activity | cytotoxic activity [3]: has the cytotoxic activity | cytotoxic activity [4]: has the cytotoxic activity | induction of apoptosis (percentage of apoptotic cells in total cells) (AGS cells): mainly ascribed to apoptosis
